# US20260015399A1 (Boehringer Ingelheim, published 2026)
# *1 amine or outer side, *2 acyl side, *3 side chain or, on linkers, in order; H or OH if unused. Side-chain parts run from the residue outwards. The star is where a group is joined. C18 diacid = O=C(O)CCCCCCCCCCCCCCCCC(=O)*; γGlu = O=C(O)[C@H](CCC(=O)[*:2])N[*:1]; Isovaleryl = CC(C)CC(=O)*; Ahx = NCCCCCC(=O)O
# T1: human NPY2 receptor (human, UniProt P49146 1-381)
# T1 sequence (looked up): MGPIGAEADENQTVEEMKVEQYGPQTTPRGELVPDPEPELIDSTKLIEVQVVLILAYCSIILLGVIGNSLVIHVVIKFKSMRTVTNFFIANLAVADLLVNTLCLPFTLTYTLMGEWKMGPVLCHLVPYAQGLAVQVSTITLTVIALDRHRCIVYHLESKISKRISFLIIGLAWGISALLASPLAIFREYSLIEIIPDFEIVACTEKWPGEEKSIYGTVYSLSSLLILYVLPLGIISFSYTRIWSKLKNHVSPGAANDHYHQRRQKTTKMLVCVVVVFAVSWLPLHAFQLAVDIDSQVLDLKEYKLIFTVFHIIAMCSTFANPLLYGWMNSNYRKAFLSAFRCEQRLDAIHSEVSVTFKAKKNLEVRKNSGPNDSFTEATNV
# T2: human NPY5 receptor (human, UniProt Q15761 1-445)
# T2 sequence (looked up): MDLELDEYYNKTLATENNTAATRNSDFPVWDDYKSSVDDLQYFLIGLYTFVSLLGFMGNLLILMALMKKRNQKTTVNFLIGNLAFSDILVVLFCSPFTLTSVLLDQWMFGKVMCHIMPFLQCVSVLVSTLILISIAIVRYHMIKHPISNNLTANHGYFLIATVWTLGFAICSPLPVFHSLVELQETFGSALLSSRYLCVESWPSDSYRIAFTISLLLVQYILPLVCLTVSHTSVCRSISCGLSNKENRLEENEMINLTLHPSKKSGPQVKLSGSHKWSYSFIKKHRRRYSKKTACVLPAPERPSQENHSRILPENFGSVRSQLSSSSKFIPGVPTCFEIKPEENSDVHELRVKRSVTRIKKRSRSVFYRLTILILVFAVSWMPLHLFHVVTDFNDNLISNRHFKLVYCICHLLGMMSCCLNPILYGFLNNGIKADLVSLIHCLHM
# B1: Compound 14 (peptide)
# peptide: Isovaleryl-APEK([Ahx-γGlu-C18 diacid])PPEDASPEELQRYYVSLRHYYNWLTRQRY-NH2
# SMILES: CC(C)CC(=O)N[C@@H](C)C(=O)N1CCC[C@H]1C(=O)N[C@@H](CCC(=O)O)C(=O)N[C@@H](CCCCNC(=O)CCCCCNC(=O)CC[C@H](NC(=O)CCCCCCCCCCCCCCCCC(=O)O)C(=O)O)C(=O)N1CCC[C@H]1C(=O)N1CCC[C@H]1C(=O)N[C@@H](CCC(=O)O)C(=O)N[C@@H](CC(=O)O)C(=O)N[C@@H](C)C(=O)N[C@@H](CO)C(=O)N1CCC[C@H]1C(=O)N[C@@H](CCC(=O)O)C(=O)N[C@@H](CCC(=O)O)C(=O)N[C@@H](CC(C)C)C(=O)N[C@@H](CCC(N)=O)C(=O)N[C@@H](CCCNC(=N)N)C(=O)N[C@@H](Cc1ccc(O)cc1)C(=O)N[C@@H](Cc1ccc(O)cc1)C(=O)N[C@H](C(=O)N[C@@H](CO)C(=O)N[C@@H](CC(C)C)C(=O)N[C@@H](CCCNC(=N)N)C(=O)N[C@@H](Cc1c[nH]cn1)C(=O)N[C@@H](Cc1ccc(O)cc1)C(=O)N[C@@H](Cc1ccc(O)cc1)C(=O)N[C@@H](CC(N)=O)C(=O)N[C@@H](Cc1c[nH]c2ccccc12)C(=O)N[C@@H](CC(C)C)C(=O)N[C@H](C(=O)N[C@@H](CCCNC(=N)N)C(=O)N[C@@H](CCC(N)=O)C(=O)N[C@@H](CCCNC(=N)N)C(=O)N[C@@H](Cc1ccc(O)cc1)C(N)=O)[C@@H](C)O)C(C)C
# B2: Compound 26 (peptide)
# peptide: Isovaleryl-APAK([Ahx-γGlu-C18 diacid])PEEDATPEELQRYYVSLRHYYNWLTRQRY-NH2
# SMILES: CC(C)CC(=O)N[C@@H](C)C(=O)N1CCC[C@H]1C(=O)N[C@@H](C)C(=O)N[C@@H](CCCCNC(=O)CCCCCNC(=O)CC[C@H](NC(=O)CCCCCCCCCCCCCCCCC(=O)O)C(=O)O)C(=O)N1CCC[C@H]1C(=O)N[C@@H](CCC(=O)O)C(=O)N[C@@H](CCC(=O)O)C(=O)N[C@@H](CC(=O)O)C(=O)N[C@@H](C)C(=O)N[C@H](C(=O)N1CCC[C@H]1C(=O)N[C@@H](CCC(=O)O)C(=O)N[C@@H](CCC(=O)O)C(=O)N[C@@H](CC(C)C)C(=O)N[C@@H](CCC(N)=O)C(=O)N[C@@H](CCCNC(=N)N)C(=O)N[C@@H](Cc1ccc(O)cc1)C(=O)N[C@@H](Cc1ccc(O)cc1)C(=O)N[C@H](C(=O)N[C@@H](CO)C(=O)N[C@@H](CC(C)C)C(=O)N[C@@H](CCCNC(=N)N)C(=O)N[C@@H](Cc1c[nH]cn1)C(=O)N[C@@H](Cc1ccc(O)cc1)C(=O)N[C@@H](Cc1ccc(O)cc1)C(=O)N[C@@H](CC(N)=O)C(=O)N[C@@H](Cc1c[nH]c2ccccc12)C(=O)N[C@@H](CC(C)C)C(=O)N[C@H](C(=O)N[C@@H](CCCNC(=N)N)C(=O)N[C@@H](CCC(N)=O)C(=O)N[C@@H](CCCNC(=N)N)C(=O)N[C@@H](Cc1ccc(O)cc1)C(N)=O)[C@@H](C)O)C(C)C)[C@@H](C)O
# B3: Compound 16 (peptide)
# peptide: Isovaleryl-APEK([Ahx-γGlu-C18 diacid])PEEDATPEELQKYYVSLRHYYNWLTRQRY-NH2
# SMILES: CC(C)CC(=O)N[C@@H](C)C(=O)N1CCC[C@H]1C(=O)N[C@@H](CCC(=O)O)C(=O)N[C@@H](CCCCNC(=O)CCCCCNC(=O)CC[C@H](NC(=O)CCCCCCCCCCCCCCCCC(=O)O)C(=O)O)C(=O)N1CCC[C@H]1C(=O)N[C@@H](CCC(=O)O)C(=O)N[C@@H](CCC(=O)O)C(=O)N[C@@H](CC(=O)O)C(=O)N[C@@H](C)C(=O)N[C@H](C(=O)N1CCC[C@H]1C(=O)N[C@@H](CCC(=O)O)C(=O)N[C@@H](CCC(=O)O)C(=O)N[C@@H](CC(C)C)C(=O)N[C@@H](CCC(N)=O)C(=O)N[C@@H](CCCCN)C(=O)N[C@@H](Cc1ccc(O)cc1)C(=O)N[C@@H](Cc1ccc(O)cc1)C(=O)N[C@H](C(=O)N[C@@H](CO)C(=O)N[C@@H](CC(C)C)C(=O)N[C@@H](CCCNC(=N)N)C(=O)N[C@@H](Cc1c[nH]cn1)C(=O)N[C@@H](Cc1ccc(O)cc1)C(=O)N[C@@H](Cc1ccc(O)cc1)C(=O)N[C@@H](CC(N)=O)C(=O)N[C@@H](Cc1c[nH]c2ccccc12)C(=O)N[C@@H](CC(C)C)C(=O)N[C@H](C(=O)N[C@@H](CCCNC(=N)N)C(=O)N[C@@H](CCC(N)=O)C(=O)N[C@@H](CCCNC(=N)N)C(=O)N[C@@H](Cc1ccc(O)cc1)C(N)=O)[C@@H](C)O)C(C)C)[C@@H](C)O
# B4: Compound 23 (peptide)
# peptide: Isovaleryl-APEK([Ahx-γGlu-C18 diacid])PEEEASPEELQRYYVSLRHYYNWLTRQRY-NH2
# SMILES: CC(C)CC(=O)N[C@@H](C)C(=O)N1CCC[C@H]1C(=O)N[C@@H](CCC(=O)O)C(=O)N[C@@H](CCCCNC(=O)CCCCCNC(=O)CC[C@H](NC(=O)CCCCCCCCCCCCCCCCC(=O)O)C(=O)O)C(=O)N1CCC[C@H]1C(=O)N[C@@H](CCC(=O)O)C(=O)N[C@@H](CCC(=O)O)C(=O)N[C@@H](CCC(=O)O)C(=O)N[C@@H](C)C(=O)N[C@@H](CO)C(=O)N1CCC[C@H]1C(=O)N[C@@H](CCC(=O)O)C(=O)N[C@@H](CCC(=O)O)C(=O)N[C@@H](CC(C)C)C(=O)N[C@@H](CCC(N)=O)C(=O)N[C@@H](CCCNC(=N)N)C(=O)N[C@@H](Cc1ccc(O)cc1)C(=O)N[C@@H](Cc1ccc(O)cc1)C(=O)N[C@H](C(=O)N[C@@H](CO)C(=O)N[C@@H](CC(C)C)C(=O)N[C@@H](CCCNC(=N)N)C(=O)N[C@@H](Cc1c[nH]cn1)C(=O)N[C@@H](Cc1ccc(O)cc1)C(=O)N[C@@H](Cc1ccc(O)cc1)C(=O)N[C@@H](CC(N)=O)C(=O)N[C@@H](Cc1c[nH]c2ccccc12)C(=O)N[C@@H](CC(C)C)C(=O)N[C@H](C(=O)N[C@@H](CCCNC(=N)N)C(=O)N[C@@H](CCC(N)=O)C(=O)N[C@@H](CCCNC(=N)N)C(=O)N[C@@H](Cc1ccc(O)cc1)C(N)=O)[C@@H](C)O)C(C)C
# B5: Compound 15 (peptide)
# peptide: Isovaleryl-APEK([Ahx-γGlu-C18 diacid])PEEDASPEEIQQYYVSLRHYYNWLTRQRY-NH2
# SMILES: CC[C@H](C)[C@H](NC(=O)[C@H](CCC(=O)O)NC(=O)[C@H](CCC(=O)O)NC(=O)[C@@H]1CCCN1C(=O)[C@H](CO)NC(=O)[C@H](C)NC(=O)[C@H](CC(=O)O)NC(=O)[C@H](CCC(=O)O)NC(=O)[C@H](CCC(=O)O)NC(=O)[C@@H]1CCCN1C(=O)[C@H](CCCCNC(=O)CCCCCNC(=O)CC[C@H](NC(=O)CCCCCCCCCCCCCCCCC(=O)O)C(=O)O)NC(=O)[C@H](CCC(=O)O)NC(=O)[C@@H]1CCCN1C(=O)[C@H](C)NC(=O)CC(C)C)C(=O)N[C@@H](CCC(N)=O)C(=O)N[C@@H](CCC(N)=O)C(=O)N[C@@H](Cc1ccc(O)cc1)C(=O)N[C@@H](Cc1ccc(O)cc1)C(=O)N[C@H](C(=O)N[C@@H](CO)C(=O)N[C@@H](CC(C)C)C(=O)N[C@@H](CCCNC(=N)N)C(=O)N[C@@H](Cc1c[nH]cn1)C(=O)N[C@@H](Cc1ccc(O)cc1)C(=O)N[C@@H](Cc1ccc(O)cc1)C(=O)N[C@@H](CC(N)=O)C(=O)N[C@@H](Cc1c[nH]c2ccccc12)C(=O)N[C@@H](CC(C)C)C(=O)N[C@H](C(=O)N[C@@H](CCCNC(=N)N)C(=O)N[C@@H](CCC(N)=O)C(=O)N[C@@H](CCCNC(=N)N)C(=O)N[C@@H](Cc1ccc(O)cc1)C(N)=O)[C@@H](C)O)C(C)C
# Target: T1, human NPY2 receptor
# Experiment: cell-based or functional assay
row,"EC50, HTRF cAMP Gi assay",Binder
1,0.086 nM,B1
2,0.108 nM,B2
3,0.31 nM,B3
4,0.181 nM,B4
5,0.14 nM,B5

# Target: T2, human NPY5 receptor
# Experiment: cell-based or functional assay
row,"EC50, HTRF cAMP Gi assay",Binder
1,> 5 µM,B1
2,> 5 µM,B2
3,> 5 µM,B3
4,> 5 µM,B4
5,> 5 µM,B5

# Target: T1, human NPY2 receptor
# Experiment: RLB: displacement of 125I-PYY(1-36) from hNPY2R membranes
row,Ki,Binder
1,1.28 nM,B1
2,5.64 nM,B2
3,2.81 nM,B3
4,12.6 nM,B4
5,3.98 nM,B5
